# Measurements published in paper PMC3319807 (Cancer Research, 2012).
# Target: His-tagged full-length p53 (UniProt P04637 1-393)
# Test: co-IP
# Sequence of His-tagged full-length p53 (P04637 whole entry): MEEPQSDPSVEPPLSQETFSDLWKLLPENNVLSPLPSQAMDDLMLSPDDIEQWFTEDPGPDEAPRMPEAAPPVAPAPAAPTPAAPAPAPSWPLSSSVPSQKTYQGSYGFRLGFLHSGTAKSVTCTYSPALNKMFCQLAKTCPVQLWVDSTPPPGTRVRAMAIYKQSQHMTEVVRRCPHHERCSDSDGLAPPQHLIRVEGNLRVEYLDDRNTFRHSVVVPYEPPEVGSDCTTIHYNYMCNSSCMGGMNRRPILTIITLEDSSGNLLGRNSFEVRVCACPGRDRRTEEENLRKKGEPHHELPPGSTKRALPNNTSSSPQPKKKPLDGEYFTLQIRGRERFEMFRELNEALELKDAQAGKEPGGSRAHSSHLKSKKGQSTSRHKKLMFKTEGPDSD
binder,measurement,value
"His-tagged minimal-binding region of Dmp1 for p53 (M14: amino acids 87–224) (domain or fragment, UniProt Q8CE22 87-224, looked up) VTMTATTEVADDELSEGTVTQIQILQNDQLDEISPLGTEEVSAVSQAWFTTKEDKDSLTNKGHKWKQGMWSKEEIDILMNNIERYLKARGIKDATEIIFEMSKDERKDFYRTIAWGLNRPLFAVYRRVLRMYDDRNHV",binding result,binds
